Measured values: patent US20200190189A1
Positions count from the first letter of the chain named. Each block holds one binder with its values, some of them ahead of it.

Assays:
[1] = target: Human CD3 on T cells in donor PBMC (human) (UniProt P07766); assay: cell-based or functional assay
[2] = target: Cynomolgus CD3εδ heterodimeric Fc fusion (cynomolgus); assay: ForteBio BLI, Fab KD, monovalent
[3] = target: Human CD3εδ heterodimeric Fc fusion (human); assay: ForteBio BLI, Fab KD, monovalent

Sequence of Human CD3 on T cells in donor PBMC (human) (P07766 23-207): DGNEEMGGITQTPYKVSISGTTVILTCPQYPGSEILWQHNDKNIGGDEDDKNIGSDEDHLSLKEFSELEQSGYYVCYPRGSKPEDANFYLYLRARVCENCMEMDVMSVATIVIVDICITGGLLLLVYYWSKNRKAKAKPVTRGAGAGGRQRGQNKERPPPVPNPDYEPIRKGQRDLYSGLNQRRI

D5801 10 nM Fab IFNg [1]: 0 pg/mL | Fab IFNg, donor A4560 PBMC, 0.3 nM [1]: 0 pg/mL | Fab IFNg, donor A4560 PBMC, 10 nM [1]: 0 pg/mL | Fab IFNg, donor D5801 PBMC, 0.3 nM [1]: 0 pg/mL
B1: ADI-26954 Fab (Fab, from a related filing, V domains shown)
VH: QVQLVQSGAEVKKPGASVKVSCKASGFNIKDYYMHWVRQAPGQRLEWMGWIDLENANTIYDAKFQGRVTITRDTSASTAYMELSSLRSEDTAVYYCARDNYGGYFYDVWGQGTLVTVSS
VL: DIVMTQSPDSLAVSLGERATINCKSSQSLLESRTGKNYLAWYQQKPGQPPKLLIYWASTRESGVPDRFSGSGSGTDFTLTISSLQAEDVAVYYCKQSYSLRTFGGGTKVEIK

Kd [2]: 220 nM | Kd [3]: 1100 nM | D5801 10 nM Fab IFNg [1]: 0 pg/mL
B2: ADI-26941 Fab (Fab, from a related filing, V domains shown)
VH: B1 VH with N55E, A56G, N100Q, G103R
VL: B1 VL with E31N, S32A, L100I

Fab IFNg, donor D5801 PBMC, 10 nM [1]: 0 pg/mL
B3: ADI-26928 Fab (Fab, from a related filing, V domains shown)
VH: B1 VH with N55E, A56G, A97G, N100A, G103L
VL: B1 VL with E31N, S32A
